Legend:
Assay in all cases: alanine scan, flow cytometry, HEK293-T;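 further: antibody binding to each alanine-substituted CD33 mutant expressed transiently in HEK293-T, read as fluorescence minus background, mean of duplicates, relative to wild-type CD33 set as 100%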
human CD33 N76A = human CD33 N76A (human, UniProt P20138 18-364)
human CD33 S97A = human CD33 S97A (human, UniProt P20138 18-364)
human CD33 I105A = human CD33 I105A (human, UniProt P20138 18-364)
human CD33 E85A = human CD33 E85A (human, UniProt P20138 18-364)
Sequence of human CD33 E85A (P20138 18-364 E85A limits assumed): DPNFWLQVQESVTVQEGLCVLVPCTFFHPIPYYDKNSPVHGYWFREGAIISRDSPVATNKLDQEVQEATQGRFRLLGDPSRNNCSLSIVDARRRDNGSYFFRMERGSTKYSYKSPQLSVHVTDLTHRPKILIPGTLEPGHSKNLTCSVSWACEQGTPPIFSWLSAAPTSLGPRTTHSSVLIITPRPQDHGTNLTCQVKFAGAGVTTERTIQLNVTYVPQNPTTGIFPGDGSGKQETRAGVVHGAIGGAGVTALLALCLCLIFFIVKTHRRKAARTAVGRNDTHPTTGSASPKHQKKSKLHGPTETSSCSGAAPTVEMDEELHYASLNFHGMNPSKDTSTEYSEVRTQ

human CD33 G88A = human CD33 G88A (human, UniProt P20138 18-364)
Sequence of human CD33 G88A (P20138 18-364 G88A limits assumed): as the sequence (P20138 18-364 E85A limits assumed) above, with A68E, G71A counted along it

human CD33 W60A = human CD33 W60A (human, UniProt P20138 18-364)
Sequence of human CD33 W60A (P20138 18-364 W60A limits assumed): as the sequence (P20138 18-364 E85A limits assumed) above, with W43A, A68E counted along it

human CD33 K52A = human CD33 K52A (human, UniProt P20138 18-364)
Sequence of human CD33 K52A (P20138 18-364 K52A limits assumed): as the sequence (P20138 18-364 E85A limits assumed) above, with K35A, A68E counted along it

human CD33 L93A = human CD33 L93A (human, UniProt P20138 18-364)
Sequence of human CD33 L93A (P20138 18-364 L93A limits assumed): as the sequence (P20138 18-364 E85A limits assumed) above, with A68E, L76A counted along it

human CD33 V82A = human CD33 V82A (human, UniProt P20138 18-364)
Sequence of human CD33 V82A (P20138 18-364 V82A limits assumed): as the sequence (P20138 18-364 E85A limits assumed) above, with V65A, A68E counted along it

human CD33 N99A = human CD33 N99A (human, UniProt P20138 18-364)
Sequence of human CD33 N99A (P20138 18-364 N99A limits assumed): as the sequence (P20138 18-364 E85A limits assumed) above, with A68E, N82A counted along it

human CD33 Q87A = human CD33 Q87A (human, UniProt P20138 18-364)
Sequence of human CD33 Q87A (P20138 18-364 Q87A limits assumed): as the sequence (P20138 18-364 E85A limits assumed) above, with A68E, Q70A counted along it

human CD33 R91A = human CD33 R91A (human, UniProt P20138 18-364)
Sequence of human CD33 R91A (P20138 18-364 R91A limits assumed): as the sequence (P20138 18-364 E85A limits assumed) above, with A68E, R74A counted along it

human CD33 T75A = human CD33 T75A (human, UniProt P20138 18-364)
Sequence of human CD33 T75A (P20138 18-364 T75A limits assumed): as the sequence (P20138 18-364 E85A limits assumed) above, with T58A, A68E counted along it

human CD33 N100A = human CD33 N100A (human, UniProt P20138 18-364)
Sequence of human CD33 N100A (P20138 18-364 N100A limits assumed): as the sequence (P20138 18-364 E85A limits assumed) above, with A68E, N83A counted along it

human CD33 G114A = human CD33 G114A (human, UniProt P20138 18-364)
Sequence of human CD33 G114A (P20138 18-364 G114A limits assumed): as the sequence (P20138 18-364 E85A limits assumed) above, with A68E, G97A counted along it

human CD33 I66A = human CD33 I66A (human, UniProt P20138 18-364)
Sequence of human CD33 I66A (P20138 18-364 I66A limits assumed): as the sequence (P20138 18-364 E85A limits assumed) above, with I49A, A68E counted along it

human CD33 N113A = human CD33 N113A (human, UniProt P20138 18-364)
Sequence of human CD33 N113A (P20138 18-364 N113A limits assumed): as the sequence (P20138 18-364 E85A limits assumed) above, with A68E, N96A counted along it

human CD33 S115A = human CD33 S115A (human, UniProt P20138 18-364)
Sequence of human CD33 S115A (P20138 18-364 S115A limits assumed): as the sequence (P20138 18-364 E85A limits assumed) above, with A68E, S98A counted along it

human CD33 F90A = human CD33 F90A (human, UniProt P20138 18-364)
Sequence of human CD33 F90A (P20138 18-364 F90A limits assumed): as the sequence (P20138 18-364 E85A limits assumed) above, with A68E, F73A counted along it

human CD33 G64A = human CD33 G64A (human, UniProt P20138 18-364)
Sequence of human CD33 G64A (P20138 18-364 G64A limits assumed): as the sequence (P20138 18-364 E85A limits assumed) above, with G47A, A68E counted along it

human CD33 S102A = human CD33 S102A (human, UniProt P20138 18-364)
Sequence of human CD33 S102A (P20138 18-364 S102A limits assumed): as the sequence (P20138 18-364 E85A limits assumed) above, with A68E, S85A counted along it

human CD33 P48A = human CD33 P48A (human, UniProt P20138 18-364)
Sequence of human CD33 P48A (P20138 18-364 P48A limits assumed): as the sequence (P20138 18-364 E85A limits assumed) above, with P31A, A68E counted along it

human CD33 Y49A = human CD33 Y49A (human, UniProt P20138 18-364)
Sequence of human CD33 Y49A (P20138 18-364 Y49A limits assumed): as the sequence (P20138 18-364 E85A limits assumed) above, with Y32A, A68E counted along it

human CD33 G172A = molecular target: T1, human CD33 G172A (human, UniProt P20138 18-364)
T1 construct: alanine scan clone, transfected HEK293-T
T1 sequence (P20138 18-364 G172A limits assumed): as the sequence (P20138 18-364 E85A limits assumed) above, with A68E, G155A counted along it

human CD33 T139A = molecular target: T2, human CD33 T139A (human, UniProt P20138 18-364)
T2 construct: alanine scan clone, transfected HEK293-T
T2 sequence (P20138 18-364 T139A limits assumed): as the sequence (P20138 18-364 E85A limits assumed) above, with A68E, T122A counted along it

human CD33 A183S = molecular target: T3, human CD33 A183S (human, UniProt P20138 18-364)
T3 construct: alanine scan clone, transfected HEK293-T
T3 sequence (P20138 18-364 A183S limits assumed): as the sequence (P20138 18-364 E85A limits assumed) above, with A68E, A166S counted along it

human CD33 W179A = molecular target: T4, human CD33 W179A (human, UniProt P20138 18-364)
T4 construct: alanine scan clone, transfected HEK293-T
T4 sequence (P20138 18-364 W179A limits assumed): as the sequence (P20138 18-364 E85A limits assumed) above, with A68E, W162A counted along it

human CD33 S186A = molecular target: T5, human CD33 S186A (human, UniProt P20138 18-364)
T5 construct: alanine scan clone, transfected HEK293-T
T5 sequence (P20138 18-364 S186A limits assumed): as the sequence (P20138 18-364 E85A limits assumed) above, with A68E, S169A counted along it

human CD33 I176A = molecular target: T6, human CD33 I176A (human, UniProt P20138 18-364)
T6 construct: alanine scan clone, transfected HEK293-T
T6 sequence (P20138 18-364 I176A limits assumed): as the sequence (P20138 18-364 E85A limits assumed) above, with A68E, I159A counted along it

human CD33 D140A = molecular target: T7, human CD33 D140A (human, UniProt P20138 18-364)
T7 construct: alanine scan clone, transfected HEK293-T
T7 sequence (P20138 18-364 D140A limits assumed): as the sequence (P20138 18-364 E85A limits assumed) above, with A68E, D123A counted along it

human CD33 L148A = molecular target: T8, human CD33 L148A (human, UniProt P20138 18-364)
T8 construct: alanine scan clone, transfected HEK293-T
T8 sequence (P20138 18-364 L148A limits assumed): as the sequence (P20138 18-364 E85A limits assumed) above, with A68E, L131A counted along it

human CD33 S194A = molecular target: T9, human CD33 S194A (human, UniProt P20138 18-364)
T9 construct: alanine scan clone, transfected HEK293-T
T9 sequence (P20138 18-364 S194A limits assumed): as the sequence (P20138 18-364 E85A limits assumed) above, with A68E, S177A counted along it

human CD33 C163A = molecular target: T10, human CD33 C163A (human, UniProt P20138 18-364)
T10 construct: alanine scan clone, transfected HEK293-T
T10 sequence (P20138 18-364 C163A limits assumed): as the sequence (P20138 18-364 E85A limits assumed) above, with A68E, C146A counted along it

human CD33 L153A = molecular target: T11, human CD33 L153A (human, UniProt P20138 18-364)
T11 construct: alanine scan clone, transfected HEK293-T
T11 sequence (P20138 18-364 L153A limits assumed): as the sequence (P20138 18-364 E85A limits assumed) above, with A68E, L136A counted along it

human CD33 P150A = molecular target: T12, human CD33 P150A (human, UniProt P20138 18-364)
T12 construct: alanine scan clone, transfected HEK293-T
T12 sequence (P20138 18-364 P150A limits assumed): as the sequence (P20138 18-364 E85A limits assumed) above, with A68E, P133A counted along it

human CD33 C212A = human CD33 C212A (human, UniProt P20138 18-364)
Sequence of human CD33 C212A (P20138 18-364 C212A limits assumed): as the sequence (P20138 18-364 E85A limits assumed) above, with A68E, C195A counted along it

Sequence of human CD33 N76A (P20138 18-364 N76A limits assumed): as the sequence (P20138 18-364 E85A limits assumed) above, with N59A, A68E counted along it
Sequence of human CD33 I105A (P20138 18-364 I105A limits assumed): as the sequence (P20138 18-364 E85A limits assumed) above, with A68E, I88A counted along it
Sequence of human CD33 S97A (P20138 18-364 S97A limits assumed): as the sequence (P20138 18-364 E85A limits assumed) above, with A68E, S80A counted along it

B1: Refmab #5 (antibody, V domains shown)
VH: QVQLVQSGAEVKKPGASVKVSCKASGYTFTNYDINWVRQAPGQGLEWIGWIYPGDGSTKYNEKFKAKATLTADTSTSTAYMELRSLRSDDTAVYYCASGYEDAMDYWGQGTTVTVSS
VL: DIQMTQSPSSLSASVGDRVTINCKASQDINSYLSWFQQKPGKAPKTLIYRANRLVDGVPSRFSGSGSGQDYTLTISSLQPEDFATYYCLQYDEFPLTFGGGTKVEIK
notes: Full-length format is human IgG1 Fc silent (PG-LALA); also made as Fab; The alanine scan used IgG or Fab
Mean % WT Binding (human CD33 N76A): 124 % WT binding
Mean % WT Binding (human CD33 S97A): 126 % WT binding
Mean % WT Binding (human CD33 I105A): 41.7 % WT binding
Mean % WT Binding (human CD33 E85A): 158 % WT binding
Mean % WT Binding (human CD33 G88A): 118 % WT binding
Mean % WT Binding (human CD33 W60A): 35.9 % WT binding
Mean % WT Binding (human CD33 K52A): 11.9 % WT binding
Mean % WT Binding (human CD33 L93A): 134 % WT binding
Mean % WT Binding (human CD33 V82A): 122 % WT binding
Mean % WT Binding (human CD33 N99A): 88.4 % WT binding
Mean % WT Binding (human CD33 Q87A): 137 % WT binding
Mean % WT Binding (human CD33 R91A): 101 % WT binding
Mean % WT Binding (human CD33 T75A): 120 % WT binding
Mean % WT Binding (human CD33 N100A): 165 % WT binding
Mean % WT Binding (human CD33 G114A): 79 % WT binding
Mean % WT Binding (human CD33 I66A): 105 % WT binding
Mean % WT Binding (human CD33 N113A): 64 % WT binding
Mean % WT Binding (human CD33 S115A): 74.6 % WT binding
Mean % WT Binding (human CD33 F90A): 123 % WT binding
Mean % WT Binding (human CD33 G64A): 136 % WT binding
Mean % WT Binding (human CD33 S102A): 154 % WT binding
Mean % WT Binding (human CD33 P48A): 92.8 % WT binding
Mean % WT Binding (human CD33 Y49A): 20.6 % WT binding

B2: Refmab #5 (antibody, V domains shown)
VH: B1 VH
VL: B1 VL
notes: The alanine scan used IgG or Fab
Mean % WT Binding (human CD33 G172A): 92.7 % WT binding
Mean % WT Binding (human CD33 T139A): 104 % WT binding
Mean % WT Binding (human CD33 A183S): 101 % WT binding
Mean % WT Binding (human CD33 W179A): 133 % WT binding
Mean % WT Binding (human CD33 S186A): 112 % WT binding
Mean % WT Binding (human CD33 I176A): 97 % WT binding
Mean % WT Binding (human CD33 D140A): 118 % WT binding
Mean % WT Binding (human CD33 L148A): 113 % WT binding
Mean % WT Binding (human CD33 S194A): 90.4 % WT binding
Mean % WT Binding (human CD33 C163A): 62 % WT binding
Mean % WT Binding (human CD33 L153A): 101 % WT binding
Mean % WT Binding (human CD33 P150A): 132 % WT binding

B3: Refmab #3 (antibody, V domains shown)
VH: QVQLVQSGAEVKKPGSSVKVSCKASGYTFTDYNMHWVRQAPGQGLEWIGYIYPYNGGTGYNQKFKSKATITADESTNTAYMELSSLRSEDTAVYYCARGRPAMDYWGQGTLVTVSS
VL: DIQMTQSPSSLSASVGDRVTITCRASESVDNYGISFMNWFQQKPGKAPKLLIYAASNQGSGVPSRFSGSGSGTDFTLTISSLQPDDFATYYCQQSKEVPWTFGQGTKVEIK
notes: In the alanine scan antibodies were used as IgG or Fab
Mean % WT Binding (human CD33 C212A): 57.3%

B4: Refmab #6 (antibody, V domains shown)
VH: QVQLQQPGAEVVKPGASVKMSCKASGYTFTSYYIHWIKQTPGQGLEWVGVIYPGNDDISYNQKFQGKATLTADKSSTTAYMQLSSLTSEDSAVYYCAREVRLRYFDVWGQGTTVTVSS
VL: EIVLTQSPGSLAVSPGERVTMSCKSSQSVFFSSSQKNYLAWYQQIPGQSPRLLIYWASTRESGVPDRFTGSGSGTDFTLTISSVQPEDLAIYYCHQYLSSRTFGQGTKLEIK
notes: as for B1
Mean % WT Binding (human CD33 N76A): 86.8 % WT binding
Mean % WT Binding (human CD33 S97A): 93.7 % WT binding
Mean % WT Binding (human CD33 I105A): 25.5 % WT binding
Mean % WT Binding (human CD33 E85A): 94.4 % WT binding
Mean % WT Binding (human CD33 G88A): 105 % WT binding
Mean % WT Binding (human CD33 W60A): 2.1 % WT binding
Mean % WT Binding (human CD33 K52A): 77 % WT binding
Mean % WT Binding (human CD33 L93A): 94.2 % WT binding
Mean % WT Binding (human CD33 V82A): 110 % WT binding
Mean % WT Binding (human CD33 N99A): 92 % WT binding
Mean % WT Binding (human CD33 Q87A): 96.9 % WT binding
Mean % WT Binding (human CD33 R91A): 91.4 % WT binding
Mean % WT Binding (human CD33 T75A): 102 % WT binding
Mean % WT Binding (human CD33 N100A): 83.9 % WT binding
Mean % WT Binding (human CD33 G114A): 106 % WT binding
Mean % WT Binding (human CD33 I66A): 93.7 % WT binding
Mean % WT Binding (human CD33 N113A): 89.7 % WT binding
Mean % WT Binding (human CD33 S115A): 75.8 % WT binding
Mean % WT Binding (human CD33 F90A): 71.1 % WT binding
Mean % WT Binding (human CD33 G64A): 92.9 % WT binding
Mean % WT Binding (human CD33 S102A): 85.1 % WT binding
Mean % WT Binding (human CD33 P48A): 104 % WT binding
Mean % WT Binding (human CD33 Y49A): 113 % WT binding

B5: Refmab #6 (antibody, V domains shown)
VH: B4 VH
VL: B4 VL
notes: as for B2
Mean % WT Binding (human CD33 G172A): 76.8 % WT binding
Mean % WT Binding (human CD33 T139A): 97.7 % WT binding
Mean % WT Binding (human CD33 A183S): 92.3 % WT binding
Mean % WT Binding (human CD33 W179A): 96.7 % WT binding
Mean % WT Binding (human CD33 S186A): 110 % WT binding
Mean % WT Binding (human CD33 I176A): 102 % WT binding
Mean % WT Binding (human CD33 D140A): 104 % WT binding
Mean % WT Binding (human CD33 L148A): 93.3 % WT binding
Mean % WT Binding (human CD33 S194A): 92.4 % WT binding
Mean % WT Binding (human CD33 C163A): 73.9 % WT binding
Mean % WT Binding (human CD33 L153A): 94.3 % WT binding
Mean % WT Binding (human CD33 P150A): 106 % WT binding

B6: Refmab #4 (antibody, V domains shown)
VH: QVQLVQSGAEVKKPGESVKVSCKASGYTFTNYGMNWVKQAPGQGLEWMGWINTYTGEPTYADKFQGRVTMTTDTSTSTAYMEIRNLGGDDTAVYYCARWSWSDGYYVYFDYWGQGTSVTVSS
VL: DIVMTQSPDSLTVSLGERTTINCKSSQSVLDSSTNKNSLAWYQQKPGQPPKLLLSWASTRESGIPDRFSGSGSGTDFTLTIDSPQPEDSATYYCQQSAHFPITFGQGTRLEIK
notes: as for B3
Mean % WT Binding (human CD33 C212A): 11%
